Paper PMC12784347, “Structural insights into substrate binding, residue contributions, and catalytic mechanism of phosphopantetheine adenylyltransferase from Helicobacter pylori” (Bioscience Reports, 2025)

Legend:
[1] = target: the molecule itself; assay: crystal structure; HpPPAT:ATP; reservoir 17% PEG1000, 0.1 M citrate phosphate pH 4.2, 1.5 mM ATP, 0.2 M Li2SO4; space group P1, 12 copies in the asymmetric unit; 2.12 Å
[2] = target: the molecule itself; assay: crystal structure; apo HpPPAT; hanging-drop vapor diffusion, 293K, protein 15 mg/ml in 20 mM Tris-HCl pH 7.9, 100 mM NaCl; reservoir 2.5 M NaCl, 0.1 M sodium acetate pH 4.5, 0.2 M Li2SO4; space group H3, two copies in the asymmetric unit; 1.98 Å
[3] = target: the molecule itself; assay: crystal structure; HpPPAT P8A:dPCoA; reservoir 18% PEG550 MME, 0.2 M KF pH 7.4; space group P2(1)2(1)2, hexamer; 2.00 Å

Protein	stoichiometry N [1]	stoichiometry N [2]	stoichiometry N [3]
Helicobacter pylori phosphopantetheine adenylyltransferase, wild type (enzyme, Phosphopantetheine adenylyltransferase (PPAT; EC 2.7.3.3) of Helicobacter pylori; each monomer in the crystal structures comprises 157 residues; also called HpPPAT; WT HpPPAT) MQKIGIYPGTFDPVTNGHIDIIHRSSELFEKLIVAVAHSSAKNPMFSLDERLKMIQLATKSFKNVECVAFEGLLANLAKEYHCKVLVRGLRVVSDFEYELQMGYANKSLNHELETLYFMPTLQNAFISSSIVRSIIAHKGDASHLVPKEIYPLISKA	12	2	
Helicobacter pylori phosphopantetheine adenylyltransferase P8A mutant (enzyme, Phosphopantetheine adenylyltransferase (PPAT; EC 2.7.3.3) of Helicobacter pylori with Pro8 replaced by alanine; also called HpPPAT P8A; HpPPAT mutant P8A) MQKIGIYAGTFDPVTNGHIDIIHRSSELFEKLIVAVAHSSAKNPMFSLDERLKMIQLATKSFKNVECVAFEGLLANLAKEYHCKVLVRGLRVVSDFEYELQMGYANKSLNHELETLYFMPTLQNAFISSSIVRSIIAHKGDASHLVPKEIYPLISKA			6
